Earlier results, collected in patent US12637513B2, “Method of treating cancer by administering an inhibitor of erythropoietin receptor activity comprising either erythropoietin receptor or erythropoietin protein” (ImmunEdge, Inc., priority 2022, dated 2026).

Molecular target: T1, hetero-EPOR (Homo sapiens, UniProt P19235+P32927)
T1 sequence (P19235 25-508): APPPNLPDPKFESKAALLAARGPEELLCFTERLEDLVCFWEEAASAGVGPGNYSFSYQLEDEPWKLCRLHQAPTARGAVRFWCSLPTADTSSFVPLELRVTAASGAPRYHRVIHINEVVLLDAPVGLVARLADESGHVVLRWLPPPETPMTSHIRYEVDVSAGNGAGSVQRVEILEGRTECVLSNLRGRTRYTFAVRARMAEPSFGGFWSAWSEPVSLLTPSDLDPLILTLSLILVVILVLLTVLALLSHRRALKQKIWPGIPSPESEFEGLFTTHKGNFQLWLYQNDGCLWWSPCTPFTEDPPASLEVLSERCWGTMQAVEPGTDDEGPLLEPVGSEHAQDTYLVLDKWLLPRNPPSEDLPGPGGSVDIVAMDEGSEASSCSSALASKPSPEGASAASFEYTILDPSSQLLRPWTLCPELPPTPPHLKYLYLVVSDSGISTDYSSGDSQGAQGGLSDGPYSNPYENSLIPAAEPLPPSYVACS
T1 sequence (P32927 17-897): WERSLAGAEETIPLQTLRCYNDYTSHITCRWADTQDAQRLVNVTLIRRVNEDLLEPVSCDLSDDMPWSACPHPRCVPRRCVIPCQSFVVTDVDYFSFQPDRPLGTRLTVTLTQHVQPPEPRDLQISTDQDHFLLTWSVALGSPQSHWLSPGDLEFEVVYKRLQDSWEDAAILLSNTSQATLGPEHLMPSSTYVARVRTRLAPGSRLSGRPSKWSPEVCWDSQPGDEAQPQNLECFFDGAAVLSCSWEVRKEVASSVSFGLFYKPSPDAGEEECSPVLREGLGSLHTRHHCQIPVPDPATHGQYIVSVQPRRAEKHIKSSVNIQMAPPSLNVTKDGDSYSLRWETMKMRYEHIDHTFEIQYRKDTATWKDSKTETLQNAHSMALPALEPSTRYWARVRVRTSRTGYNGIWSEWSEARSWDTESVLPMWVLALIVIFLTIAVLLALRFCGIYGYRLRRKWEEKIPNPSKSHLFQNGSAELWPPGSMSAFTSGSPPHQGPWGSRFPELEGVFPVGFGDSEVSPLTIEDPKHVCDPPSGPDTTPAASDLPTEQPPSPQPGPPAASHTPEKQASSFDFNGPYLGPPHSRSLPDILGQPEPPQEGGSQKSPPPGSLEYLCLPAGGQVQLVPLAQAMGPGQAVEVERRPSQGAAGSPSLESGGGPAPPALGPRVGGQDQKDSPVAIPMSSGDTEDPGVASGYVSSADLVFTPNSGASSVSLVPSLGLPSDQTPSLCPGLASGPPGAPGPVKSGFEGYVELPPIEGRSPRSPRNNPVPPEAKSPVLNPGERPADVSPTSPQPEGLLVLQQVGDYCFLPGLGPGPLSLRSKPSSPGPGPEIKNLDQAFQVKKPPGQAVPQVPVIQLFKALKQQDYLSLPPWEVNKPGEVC
Settings: cited from earlier work

In the case of QEQLERALNSS, the “activity for the hetero-EPOR” value is given as “activates the hetero-EPOR”.
